Experimental data published in US20110256153A1 (IMMUNOGEN, published 2011).
Numbering of substitutions follows the chain as printed. Several values for one entry are separate records, joined by “and”; a condition that tells them apart may be missing. Equal values may be shown once.

B1: muCD37-38 (antibody, mouse IgG1, kappa, V domains shown)
VH: DVQLQESGPDLVKPSQSLSLTCTVTGYSITSGFGWHWIRQFPGNKLEWMAYILYSGGTDYNPSLKSRISITRDTSKNQFFLRLSSVTTEDTATYYCARGYYGYGAWFVYWGQGTLVTVSA
VL: QIVLTQSPAIMSASPGEKVTMTCSASSSVTYMHWYQQKSGTSPKRWIYDTSKLASGVPARFSGGGSGTSYSLTISSMEAEDAATYYCQQWISNPPTFGGGTKLEIKR
notes: Murine hybridoma antibody
B2: muCD37-56 (antibody, mouse IgG1, kappa, V domains shown)
VH: B1 VH with G34A, A50G, L53H, D59N, I68V, R82Q, S84N, Y103F, V108A, T117P
VL: B1 VL with I10F, E17D, S76T, N93D
notes: Murine hybridoma antibody
B3: muCD37-57 (antibody, mouse IgG2a, kappa, V domains shown)
VH: B1 VH with V12L, G34A, A50G, G57S, D59V, N61S, R82Q, S84N, V108A
VL: B1 VL with S26T, G64S, I91S, S92D, G99S
notes: Murine hybridoma antibody
B4: huCD37-3-SMCC-DM1 (antibody, human IgG1, kappa, V domains shown)
VH: QVQVQESGPGLVAPSQTLSITCTVSGFSLTTSGVSWVRQPPGKGLEWLGVIWGDGSTNYHPSLKSRLSIKKDHSKSQVFLKLNSLTAADTATYYCAKGGYSLAHWGQGTLVTVSS
VL: DIQMTQSPSSLSVSVGERVTITCRASENIRSNLAWYQQKPGKSPKLLVNVATNLADGVPSRFSGSGSGTDYSLKINSLQPEDFGTYYCQHYWGTTWTFGQGTKLEIKR
modifications: DM1 attached through SMCC linker; attachment residues not stated; 3.5-4 DM1 per antibody
notes: heavy chain version as for huCD37-3, see its note
B5: huCD37-3v1.0 (antibody, human IgG1, kappa, V domains shown)
VH: B4 VH
VL: B4 VL
notes: Resurfaced (humanized) CD37-3, version 1.0
B6: huCD37-3 (antibody, human IgG1, kappa, V domains shown)
VH: B4 VH
VL: B4 VL
notes: also called huCD37-3 Ab; huCD37-3 antibody
B7: huCD37-3-sulfo-mal-DM4 (antibody, human IgG1, kappa, V domains shown)
VH: B4 VH
VL: B4 VL
modifications: DM4 attached through 3-sulfo-mal linker; attachment residues not stated; 3.5-4 DM4 per antibody
notes: as for B4
B8: huCD37-3-SPP-DM1 (antibody, human IgG1, kappa, V domains shown)
VH: B4 VH
VL: B4 VL
modifications: DM1 attached through SPP linker; attachment residues not stated; 3.5-4 DM1 per antibody
notes: as for B4
B9: huCD37-3v1.01 (antibody, human IgG1, kappa, V domains shown)
VH: B4 VH with P61S
VL: B4 VL
notes: also called huCD37-3v1.1

How the values were obtained:
macaque CD37 = target: T1, macaque CD37 (macaque, UniProt P11049 1-277 (human entry)); assay: flow cytometry, 300-19/CD37mac cells
T1 construct: Expressed on 300-19 cells transfected with pSRa-CD37mac (300-19/CD37mac cells); also called macaca CD37; macaque derived CD37 antigen
T1 chain: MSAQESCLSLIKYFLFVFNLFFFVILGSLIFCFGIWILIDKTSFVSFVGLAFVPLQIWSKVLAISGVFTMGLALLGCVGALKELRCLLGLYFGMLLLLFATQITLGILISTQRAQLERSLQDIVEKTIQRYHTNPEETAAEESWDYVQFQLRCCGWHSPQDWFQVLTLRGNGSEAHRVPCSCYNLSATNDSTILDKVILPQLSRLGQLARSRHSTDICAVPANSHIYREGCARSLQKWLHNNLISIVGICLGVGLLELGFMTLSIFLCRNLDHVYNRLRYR
Experimental: (§1) Binding specificity was tested by flow cytometry using purified antibodies. […] All murine antibodies were incubated for 3 h with either CD37-expressing 300-19 cells or the non-transfected 300-19 cells (1×10⁵ cells per sample) in 100 μL FACS buffer (RPMI-1640 medium supplemented with 2% normal goat serum). Then, the cells were pelleted, washed, and incubated for 1 h with 100 μL of FITC-conjugated goat anti-mouse IgG-antibody (Jackson Laboratory, 6 μg/mL in FACS buffer). The cells were pelleted again, washed with FACS buffer and resuspended in 200 μL of PBS containing 1% formaldehyde. Samples were acquired using a FACSCalibur flow cytometer with the HTS multiwell sampler or a FACS array flow cytometer and analyzed using CellQuest Pro (all from BD Biosciences, San Diego, US).
The murine antibodies muCD37-3, muCD37-12, muCD37-38, […], muCD37-51, muCD37-56 and muCD37-57 were assayed for their ability to bind to 300-19/CD37mac cells expressing macaque CD37. Flow cytometry binding assays were carried out using secondary FITC-conjugated goat-anti-murine or goat-anti-human antibodies, analyzed as described in Example 2. Binding was compared to the previously described anti-CD37 antibody WR17 and the anti-CD37 SMIP TRU-016. […] In contrast, muCD37-3, muCD37-12, the previously described anti-CD37 antibody WR17 and the anti-CD37 SMIP TRU-016 are unable to bind the macaque derived CD37 antigen.

hCD37-M45 = target: T2, hCD37-M45 (human/murine chimera, UniProt P11049 1-281); assay: flow cytometry, 300-19 cells expressing hCD37-M45
T2 construct: stably expressed on 300-19 cells; also called hCD37-M45 variant
T2 chain: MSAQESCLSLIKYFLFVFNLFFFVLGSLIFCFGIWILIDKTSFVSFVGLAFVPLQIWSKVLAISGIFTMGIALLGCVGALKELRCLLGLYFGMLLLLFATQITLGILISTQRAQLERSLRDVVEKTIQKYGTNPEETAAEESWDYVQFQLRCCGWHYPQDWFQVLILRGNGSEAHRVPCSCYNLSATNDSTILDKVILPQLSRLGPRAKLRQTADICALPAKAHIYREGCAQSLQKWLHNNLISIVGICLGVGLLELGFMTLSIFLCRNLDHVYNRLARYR
Experimental: as §1
(§2) Binding of various CD37 antibodies to cells expressing human CD37 wildtype and variants was analyzed by flow cytometry using 1.5 μg/mL of each antibody. The isolated antibodies of this invention were compared to commercially available CD37 antibody WR17, as well as the TRU-016 SMIP. […] Likewise, all antibodies tested bound the hCD37-M3 variant (FIG. 18B). In contrast, the isolated antibodies of this invention bound the hCD37-M1 variant, while TRU-016 and WR17 were unable to bind hCD37-M1 variant (FIG. 19A). The CD37-50 and CD37-51 antibodies and TRU-016 were also able to bind the hCD37-M45 variant. […] In contrast, the CD37-3, CD37-12, CD37-38, CD37-56 and CD37-57 antibodies require at least one of the AA residues in the hCD37-M45 variant that were changed to the corresponding murine AA residues for binding to the CD37 antigen.

human CD37 [1] = target: T3, human CD37 (human, UniProt P11049 1-278); assay: flow cytometry titration on BJAB cells; apparent Kd
T3 construct: Tetraspanin antigen; Expressed on 300-19 cells transfected with pSRa-CD37 (entire CDS) or endogenous on WSU-DLCL-2, BJAB and Ramos lymphoma cells; also called CD37 antigen; human CD37 wildtype
T3 sequence: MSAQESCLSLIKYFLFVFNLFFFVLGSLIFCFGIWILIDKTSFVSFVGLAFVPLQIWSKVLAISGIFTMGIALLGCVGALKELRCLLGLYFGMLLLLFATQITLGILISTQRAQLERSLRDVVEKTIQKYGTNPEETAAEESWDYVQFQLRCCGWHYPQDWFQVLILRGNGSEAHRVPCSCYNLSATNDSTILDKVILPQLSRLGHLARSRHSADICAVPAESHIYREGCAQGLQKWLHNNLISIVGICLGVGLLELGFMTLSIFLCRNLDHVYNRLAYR
Experimental: as §1
The humanized antibodies huCD37-38, huCD37-50, huCD37-51, huCD37-56 and chCD37-57 were assayed for their binding affinity to BJAB cells in comparison to their murine counterparts. Flow cytometry binding assays were carried out using secondary FITC-conjugated goat-anti-murine and -anti-human antibodies, analyzed as described in Example 2 and dose-response curves were generated by non-linear regression for each antibody. The value for the apparent dissociation constant (Kd) of each antibody was calculated using GraphPad Prism v4 (GraphPad software, San Diego, Calif.).

hCD37-M1 = target: T4, hCD37-M1 (human/murine chimera, UniProt P11049 1-281); assay: flow cytometry, 300-19 cells expressing hCD37-M1, 1.5 µg/mL antibody
T4 construct: stably expressed on 300-19 cells; also called hCD37-M1 variant
T4 chain: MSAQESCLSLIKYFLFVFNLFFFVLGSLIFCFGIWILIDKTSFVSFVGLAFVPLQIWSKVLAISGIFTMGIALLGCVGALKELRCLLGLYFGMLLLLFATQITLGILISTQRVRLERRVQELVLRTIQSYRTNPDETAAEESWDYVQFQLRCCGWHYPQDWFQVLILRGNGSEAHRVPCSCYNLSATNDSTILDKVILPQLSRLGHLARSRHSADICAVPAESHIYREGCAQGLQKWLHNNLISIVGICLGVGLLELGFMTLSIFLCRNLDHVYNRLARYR
Experimental: as §1, §2

hCD37-M3 = target: T5, hCD37-M3 (human/murine chimera, UniProt P11049 1-281); assay: flow cytometry, 300-19 cells expressing hCD37-M3, 1.5 µg/mL antibody
T5 construct: stably expressed on 300-19 cells; also called hCD37-M3 variant
T5 chain: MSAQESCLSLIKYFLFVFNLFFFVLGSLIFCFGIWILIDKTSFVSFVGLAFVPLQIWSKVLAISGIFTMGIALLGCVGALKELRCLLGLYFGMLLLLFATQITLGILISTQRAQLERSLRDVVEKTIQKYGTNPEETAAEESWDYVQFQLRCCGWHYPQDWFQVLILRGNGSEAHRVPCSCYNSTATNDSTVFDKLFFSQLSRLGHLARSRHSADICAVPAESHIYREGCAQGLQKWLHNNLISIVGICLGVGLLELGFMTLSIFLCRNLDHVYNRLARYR
Experimental: as §1, §2

human CD37 [2] = target: T3, human CD37; assay: cell-based or functional assay
human CD37 [3] = target: T3, human CD37; assay: flow cytometry titration on BJAB cells (FIG. 20A); apparent Kd
human CD37 [4] = target: T3, human CD37; assay: competition flow cytometry on BJAB cells; competitor PE-labeled muCD37-3 (1 nM)
Experimental: Flow cytometry binding assays using BJAB cells and a competitive binding format were used to evaluate binding affinity of chimeric and humanized versions of CD37-3. BJAB cells were incubated with a 1 nM concentration of PE-labeled muCD37-3 antibody and competition was measured by adding varying amounts of muCD37-3, chCD37-3, huCD37-3v1.0 or huCD37-3v1.01. The samples were incubated for 3 hrs at 4° C. Then, the cells were pelleted, washed with FACS buffer and resuspended in 200 μL of PBS containing 1% formaldehyde. Samples were acquired using a FACSCalibur flow cytometer with the HTS multiwell sampler and analyzed using CellQuest Pro (all from BD Biosciences, San Diego, US). The resulting mean PE fluorescence was plotted against the amount of competing antibody used in a semi-log plot. FIG. 9B depicts the dose-response curves generated by non-linear regression for each antibody. The value for the apparent dissociation constant (Kd) of each antibody was calculated using GraphPad Prism v4 (GraphPad software, San Diego, Calif.).

human CD37 [5] = target: T3, human CD37; assay: flow cytometry titration; apparent Kd; cells not named

| Binder | binding result (macaque CD37) | binding result (hCD37-M45) | Kd (human CD37 [1]) [nM] | binding result (hCD37-M1) | binding result (hCD37-M3) | EC50 of in vitro cytotoxicity, BJAB cells (human CD37 [2]) | EC50 of in vitro cytotoxicity, Daudi cells (human CD37 [2]) | Kd (human CD37 [3]) [nM] | further results |
| --- | --- | --- | --- | --- | --- | --- | --- | --- | --- |
| B1 | binds | no binding (tested: 1.5 µg/mL) | 0.4 | binds | binds |  |  |  |  |
| B2 | binds | no binding (tested: 1.5 µg/mL) | 0.4 | binds | binds |  |  |  |  |
| B3 | binds | no binding (tested: 1.5 µg/mL) | 1 | binds | binds |  |  |  |  |
| B4 |  |  |  |  |  | 0.041 nM and 0.019 nM | 0.065 nM and 0.036 nM | 0.46 | EC50 of in vitro cytotoxicity, Namalwa cells (human CD37 [2]): 0.033 nM; EC50 of in vitro cytotoxicity, Raji cells (human CD37 [2]): 0.071 nM; EC50 of in vitro cytotoxicity, Raji-VCR cells (human CD37 [2]): 0.11 nM; EC50 of in vitro cytotoxicity, Ramos cells (human CD37 [2]): 0.16 nM; EC50 of in vitro cytotoxicity, SU-DHL-4 cells (human CD37 [2]): 0.031 nM; EC50 of in vitro cytotoxicity, WST-8 assay, Daudi cells (human CD37 [2]): 0.067 nM; EC50 of in vitro cytotoxicity, WST-8 assay, Granta-519 cells (human CD37 [2]): 0.047 nM |
| B5 |  |  |  |  |  |  |  |  | EC50 (human CD37 [4]): 1 nM |
| B6 | no binding |  | 0.2 |  |  |  |  | 0.26 | Kd (human CD37 [5]): 0.28 nM |
| B7 |  |  |  |  |  | 0.11 nM | 0.14 nM | 0.89 | EC50 of in vitro cytotoxicity, Granta-519 cells (human CD37 [2]): 0.088 nM |
| B8 |  |  |  |  |  | 0.11 nM | 0.12 nM | 0.56 | EC50 of in vitro cytotoxicity, Granta-519 cells (human CD37 [2]): 0.13 nM |
| B9 |  |  |  |  |  |  |  |  | EC50 (human CD37 [4]): 0.6 nM |
